Experiment [1] has as its target HIV-1 CA A14C/E45C (HIV-1 (human immunodeficiency virus type 1)). Put plainly: cross-linking.
Experiment [2] concerns the target HIV-1 CA A14C/E45C/W184A/M185A (HIV-1 (human immunodeficiency virus type 1)). Put plainly: SEC.
For experiment [3], the target named is HIV-1 CA A42C/T54C (HIV-1 (human immunodeficiency virus type 1)). Put plainly: cross-linking.
Experiment [4] addresses HIV-1 CA N21C/A22C (HIV-1 (human immunodeficiency virus type 1)). In words: cross-linking.

By stoichiometry N is commonly meant a count of units in the complex or per binding partner. Consider HIV-1 CA A14C/E45C (natural protein), for which, in experiment [1], the crosslinking efficiency is more than 90% and the stoichiometry N came to 6. Substance “HIV-1 CA A14C/E45C/W184A/M185A (natural protein)” gave a stoichiometry N in experiment [2] of 6. As to HIV-1 CA A42C/T54C (natural protein), in experiment [3], the crosslinked 6-mer band, share of the total protein came to 30%; the maximal crosslinking is 50%; the stoichiometry N is 6. Substance HIV-1 CA N21C/A22C (natural protein) registered a stoichiometry N in experiment [4] of 5.

The record behind these values is PMC3050670.
